Paper PMC3578147

Target: Rev-independent (RI) HIV-1 Gag-CFP (HIV-1)
Assay: FRET or BRET

HIV.Rev-YFP (HIV-1 Rev fused to YFP) (from UniProt P04618 1-116) (natural protein)
FRET efficiency: 16.4%

YFP-HIV.NC (HIV-1 NC protein fused to YFP) (domain or fragment)
FRET efficiency: 7.8%
